This is an account of results in patent US20140017242A1, “ANTI-BRADYKININ B2 RECEPTOR (BKB2R) MONOCLONAL ANTIBODY” (Diamedica, Inc., priority 2010, published 2014).

Common to all, as to assay type: in vivo, rat
For one experiment, the system named is Wistar rats. Kind of experiment: Acute effects on blood pressure in anesthetized Wistar rats. The settings on record: single dose 0.5 mg/kg IV. Here is the method: Male Wistar rats (Charles River Laboratories, Boston, Mass.) were 7.0 to 7.6 weeks old, weighed an average of 245 grams, and were maintained on Purina 5001 rat chow ad libitum. Following one week of laboratory acclimatization, treatments femoral catheter surgery and drug administration were conducted within a one-day period with measurements commencing the same day and continued during an ongoing three-week follow-up period. Treatment groups were (1) 3H3H3 (anti-BKB2R) antibody (n=8), (2) 3H3H9 (anti-BKB2R) antibody (n=8), (3) 1F2G7 (anti-BKB2R) antibody, (n=3), (4) 5F12G1 (anti-BKB2R) antibody (n=8).
Rats were anesthetized with ketamine (30 mg/kg, IM) and Inactin (50 mg/kg, IP). Cannulae were implanted in the femoral artery for blood pressure measurements and in the femoral vein for drug administration. Arterial line was filled with saline with 10 UI/ml of heparin to keep the line patent over the experiment and avoid frequent flushing of the arterial line. After 15-20 minutes of equilibration period, and once the blood pressure was stable, a baseline blood pressure was recorded for 15 minutes; then, drugs were administered and its effects on blood pressure assessed. For the antibodies a single dose (0.5 mg/kg) was administered and blood pressure recorded for three hours. All drugs were diluted in saline or PBS to achieve a total volume of 1 ml/kg. Drugs were slowly administered, on a 40-sec period on average. Animals were kept at 37° C. during the experiment. At the end of the experiments, animals were euthanized and no blood or tissues were collected.
Baseline blood pressure, length of blood pressure response to drug, maximum blood pressure change and Area Under the Curve (AUC) for the blood pressure response. Blood pressure at 1, 2 and 3 h after infusion for the antibodies.

In experiment [1] the test system is ZDF fa/fa rats. The experiment in a line: Oral glucose tolerance test in ZDF fa/fa rats, single dose of 5F12G1. The settings on record: single s.c. administration 1.0, 0.2 and 0.04 mg/kg. Here is the method: This Example describes evaluation of oral glucose tolerance in Zucker Diabetic fatty (ZDF fa/fa) rats treated with 5F12G1 monoclonal antibody. Male ZDF fa/fa rats (Charles River) were maintained on a Harlan Tekled diet with Arrowhead drinking water ad libitum and allowed to acclimatize for one week. Six animals per group were treated according to the following treatment groups: 1, sterile PBS (vehicle control); 2, 1.0 mg/kg murine monoclonal antibody (mAb) 5F12G1 (VH comprising SEQ ID NO:1, VL comprising SEQ ID NO:2); 3, 0.2 mg/kg mAb 5F12G1; 4, 0.04 mg/kg mAb 5F12G1.
Oral Glucose Tolerance Test. The Oral Glucose Tolerance Test (OGTT) was performed on overnight fasted (16 hours) rats. Vehicle control (PBS) or 5F12G1 monoclonal antibody was administered subcutaneously thirty minutes prior to glucose loading. D-glucose was prepared in distilled water and administered orally at 2 g/kg body weight.
At multiple time points (0, 15, 30, 60, 90 and 120 minutes) blood samples of approximately 50 μl each were collected and processed to isolate the plasma. The plasma samples were analyzed for insulin by an ELISA method using an ultra sensitive mouse insulin ELISA kit (Crystal Chem, Inc., Downers Grove, Ill.). ELISA data were compiled and used to calculate the mean±standard error (SEM) with Microsoft Excel or GraphPad Prism version 5.00 for Windows (GraphPad Software, San Diego Calif. USA).

In experiment [2] the test system is ZDF fa/fa rats. Kind of experiment: 21-day ZDF fa/fa study: urinary glucose (glycosuria). The note with it: day 14.
In experiment [3] the test system is ZDF fa/fa rats. The experiment in a line: 21-day ZDF fa/fa study: hyperinsulinemic-euglycemic clamp in sub-groups. The settings on record: after 21 days. Here is the method: Animals. Male ZDF fa/fa rats were obtained from CRL (Kingston, N.Y.). Upon arrival, rats were seven weeks of age. The rats were housed individually per cage in a room with a photo cycle of 12 hours of light and 12 hours of dark and an ambient temperature of 70-72° F. and fed on regular rodent diet and water ad libitum. At the age of eleven weeks, rats were divided into six groups (Table 5) of eight rats per group based on fasting blood glucose levels. A sub-group of four rats per group was maintained in parallel to the main groups and was dosed similarly for twenty-one days for a hyperinsulinemic-euglycemic clamp study.
The test compounds 5F12G1 and MG2b-57 were administered subcutaneously once every three days.

B1: 5F12G1: murine monoclonal anti-BKB2R antibody (IgG2b,κ), VH comprising SEQ ID NO:1, VL comprising SEQ ID NO:2 (antibody, listed as Mus musculus, V domains shown)
VH: EVKLEESGGGLVQPGGSMKLSCVVSGFTFSDYWMSWVRHSPEMGLEWVAEIRLKSDNYATHYAESVKGRFTISRDDSKSRLYLQINSLRGEDTGIYYCTRDYYAMEYWGQGTSVTVSS
VL: DVVMTQTPLSLPVSLGDQASISCRSSQTIVHSNGKTYLEWYLQKPGQSPKLLIYKVSNRFSGVPDRFSGSGSGTEFTLKISRVETEDLGVYYCFQASHVPYTFGGGTKLEIK
For the molecule B1, the “Peak Blood Pressure Response (mm HG)” value in the experiment on Wistar rats is recorded as 57 +/− 4 mm HG. Also, the “Length (sec) of Blood Pressure Response” value with Wistar rats (until blood pressure returned to baseline) amounted to 168 ± 29 s. Moreover, the “blood pressure at one hour after administration” value in the experiment with Wistar rats (baseline 109±3 mm Hg) was determined as 95±3 mm Hg. Moreover, the “blood pressure at three hours after administration” value in the experiment on Wistar rats (baseline 109±3 mm Hg) amounted to 95±3 mm Hg. Moreover, in the experiment on Wistar rats (baseline 109±3 mm Hg), the “blood pressure at two hours after administration” value is 94±3 mm Hg. Further, the “insulin activity in OGTT” value with ZDF fa/fa rats [1] is given as “dose dependently increased insulin activity”. Moreover, the “area under curve (AUC) of blood glucose concentration after oral loading of glucose, compared to vehicle control” value with ZDF fa/fa rats [1] (30 min before glucose 2 g/kg) is reported as “decreased”. Besides, the values for the urine glucose level with ZDF fa/fa rats [2] (0.008 mg/kg s.c. every 3 days), in the experiment with ZDF fa/fa rats [2] (0.04 mg/kg s.c. every 3 days) and with ZDF fa/fa rats [2] (0.2 mg/kg s.c. every 3 days) were 54 ± 11 mg/dL, 49 ± 6 mg/dL and 31 ± 2 mg/dL, respectively. The “AUC-GIR (glucose infusion rate) in the clamp” value in the experiment on ZDF fa/fa rats [3] (0.04 mg/kg s.c. every 3 days) and in the experiment on ZDF fa/fa rats [3] (0.2 mg/kg s.c. every 3 days) was “significantly higher AUC-GIR” throughout.
